# Data published in publication PMC13397619.
# B1: NLV2 TCR alpha chain (CDR3α only) (parent)
# chain: AGPMKTSYDKVI
# Variants of: B1
# Assay: T-Switch: Jurkat TCRβ−/− cells expressing a CDR3 saturation-mutagenesis library, stained with two peptide-HLA-A*02:01 tetramers (original and novel peptide) plus anti-CD3, FACS-sorted into four gates, gDNA sequenced
# Settings: tetramers 1 µg/mL, 30 min on ice, SP, DP and SW gates expanded about 10 days between rounds ('two to three rounds of selection' in the Methods), unresolved parent, parent is a CDR3 fragment, scale: fold enrichment, numbering: sequential-on-construct, sequence starts at 1
# [1] = with both tetramers (double-negative gate, binds neither): HLA-A*02:01 with … and with …, gate DN: OPPOSITE: higher = more of the variant in the gate that binds neither peptide = LESS binding (or no expression; inferred). Fold enrichment of the CDR3 variant in one FACS gate of a two-tetram
# [2] = with both tetramers (double-positive gate): HLA-A*02:01 with … and with …, gate DP: higher = more of the variant in the gate that binds both peptides. Fold enrichment of the CDR3 variant in one FACS gate of a two-tetramer stain. SP/DP/SW gates were expanded and re-sorted bef
Variant,enrichment [1],enrichment [2]
[…] (CDR3 as printed); K10Q derived by comparing it with the table's wild-type CDR3 AGPMKTSYDKVI,0.706,0
[…] (CDR3 as printed); K10W derived by comparing it with the table's wild-type CDR3 AGPMKTSYDKVI,1.38,0
[…] (CDR3 as printed); K5G derived by comparing it with the table's wild-type CDR3 AGPMKTSYDKVI,0.602,0
[…] (CDR3 as printed); S7I derived by comparing it with the table's wild-type CDR3 AGPMKTSYDKVI,1.04,0
[…] (CDR3 as printed); Y8D derived by comparing it with the table's wild-type CDR3 AGPMKTSYDKVI,0.393,40.5
[…] (CDR3 as printed); A1M derived by comparing it with the table's wild-type CDR3 AGPMKTSYDKVI,0.803,0
[…] (CDR3 as printed); M4W derived by comparing it with the table's wild-type CDR3 AGPMKTSYDKVI,0.861,0
[…] (CDR3 as printed); T6C derived by comparing it with the table's wild-type CDR3 AGPMKTSYDKVI,0.924,0
[…] (CDR3 as printed); S7Q derived by comparing it with the table's wild-type CDR3 AGPMKTSYDKVI,0.986,0
[…] (CDR3 as printed); Y8P derived by comparing it with the table's wild-type CDR3 AGPMKTSYDKVI,1.08,0
[…] (CDR3 as printed); G2Q derived by comparing it with the table's wild-type CDR3 AGPMKTSYDKVI,0.677,0
[…] (CDR3 as printed); I12V derived by comparing it with the table's wild-type CDR3 AGPMKTSYDKVI,0.739,0
[…] (CDR3 as printed); K5A derived by comparing it with the table's wild-type CDR3 AGPMKTSYDKVI,0.428,0
[…] (CDR3 as printed); V11I derived by comparing it with the table's wild-type CDR3 AGPMKTSYDKVI,0.74,0
[…] (CDR3 as printed); K5H derived by comparing it with the table's wild-type CDR3 AGPMKTSYDKVI,0.696,0
[…] (CDR3 as printed); V11Y derived by comparing it with the table's wild-type CDR3 AGPMKTSYDKVI,1.04,0
[…] (CDR3 as printed); M4F derived by comparing it with the table's wild-type CDR3 AGPMKTSYDKVI,1.34,0
[…] (CDR3 as printed); Y8R derived by comparing it with the table's wild-type CDR3 AGPMKTSYDKVI,1.17,0
[…] (CDR3 as printed); I12M derived by comparing it with the table's wild-type CDR3 AGPMKTSYDKVI,0.63,0

Variant,enrichment [1],enrichment [2]
[…] (CDR3 as printed); K5V derived by comparing it with the table's wild-type CDR3 AGPMKTSYDKVI,0.87,0
[…] (CDR3 as printed); Y8A derived by comparing it with the table's wild-type CDR3 AGPMKTSYDKVI,0.451,0
[…] (CDR3 as printed); K10E derived by comparing it with the table's wild-type CDR3 AGPMKTSYDKVI,1.27,0
[…] (CDR3 as printed); S7L derived by comparing it with the table's wild-type CDR3 AGPMKTSYDKVI,1.06,0
[…] (CDR3 as printed); V11D derived by comparing it with the table's wild-type CDR3 AGPMKTSYDKVI,0.904,0
[…] (CDR3 as printed); S7N derived by comparing it with the table's wild-type CDR3 AGPMKTSYDKVI,1.31,0
[…] (CDR3 as printed); I12T derived by comparing it with the table's wild-type CDR3 AGPMKTSYDKVI,0.984,0
[…] (CDR3 as printed); K5W derived by comparing it with the table's wild-type CDR3 AGPMKTSYDKVI,0.659,0
[…] (CDR3 as printed); K10H derived by comparing it with the table's wild-type CDR3 AGPMKTSYDKVI,0.835,0
[…] (CDR3 as printed); G2Y derived by comparing it with the table's wild-type CDR3 AGPMKTSYDKVI,0.902,0
[…] (CDR3 as printed); D9K derived by comparing it with the table's wild-type CDR3 AGPMKTSYDKVI,0.961,0
[…] (CDR3 as printed); G2L derived by comparing it with the table's wild-type CDR3 AGPMKTSYDKVI,0.978,0
[…] (CDR3 as printed); M4E derived by comparing it with the table's wild-type CDR3 AGPMKTSYDKVI,0.637,0
[…] (CDR3 as printed); I12Q derived by comparing it with the table's wild-type CDR3 AGPMKTSYDKVI,1.17,0
[…] (CDR3 as printed); Y8S derived by comparing it with the table's wild-type CDR3 AGPMKTSYDKVI,0.528,0
[…] (CDR3 as printed); T6Q derived by comparing it with the table's wild-type CDR3 AGPMKTSYDKVI,1.14,0
[…] (CDR3 as printed); K10A derived by comparing it with the table's wild-type CDR3 AGPMKTSYDKVI,0.862,0
[…] (CDR3 as printed); S7R derived by comparing it with the table's wild-type CDR3 AGPMKTSYDKVI,0.927,0
[…] (CDR3 as printed); T6N derived by comparing it with the table's wild-type CDR3 AGPMKTSYDKVI,0.879,0

Variant,enrichment [1],enrichment [2]
[…] (CDR3 as printed); V11F derived by comparing it with the table's wild-type CDR3 AGPMKTSYDKVI,1.29,0
[…] (CDR3 as printed); I12H derived by comparing it with the table's wild-type CDR3 AGPMKTSYDKVI,1.04,0
[…] (CDR3 as printed); V11C derived by comparing it with the table's wild-type CDR3 AGPMKTSYDKVI,1.08,0
[…] (CDR3 as printed); T6L derived by comparing it with the table's wild-type CDR3 AGPMKTSYDKVI,1.1,0
[…] (CDR3 as printed); T6I derived by comparing it with the table's wild-type CDR3 AGPMKTSYDKVI,0.515,0
[…] (CDR3 as printed); I12A derived by comparing it with the table's wild-type CDR3 AGPMKTSYDKVI,0.854,0
[…] (CDR3 as printed); Y8T derived by comparing it with the table's wild-type CDR3 AGPMKTSYDKVI,1.15,0
[…] (CDR3 as printed); G2I derived by comparing it with the table's wild-type CDR3 AGPMKTSYDKVI,1.1,0
[…] (CDR3 as printed); T6M derived by comparing it with the table's wild-type CDR3 AGPMKTSYDKVI,1.45,0
[…] (CDR3 as printed); K5S derived by comparing it with the table's wild-type CDR3 AGPMKTSYDKVI,0.492,0
[…] (CDR3 as printed); D9R derived by comparing it with the table's wild-type CDR3 AGPMKTSYDKVI,1.08,0
[…] (CDR3 as printed); D9F derived by comparing it with the table's wild-type CDR3 AGPMKTSYDKVI,1.2,0
[…] (CDR3 as printed); S7E derived by comparing it with the table's wild-type CDR3 AGPMKTSYDKVI,1.01,0
[…] (CDR3 as printed); P3C derived by comparing it with the table's wild-type CDR3 AGPMKTSYDKVI,0.884,0
[…] (CDR3 as printed); P3F derived by comparing it with the table's wild-type CDR3 AGPMKTSYDKVI,1.32,0
[…] (CDR3 as printed); A1R derived by comparing it with the table's wild-type CDR3 AGPMKTSYDKVI,0.924,0
[…] (CDR3 as printed); V11N derived by comparing it with the table's wild-type CDR3 AGPMKTSYDKVI,1.11,0
[…] (CDR3 as printed); M4D derived by comparing it with the table's wild-type CDR3 AGPMKTSYDKVI,0.825,0
[…] (CDR3 as printed); V11G derived by comparing it with the table's wild-type CDR3 AGPMKTSYDKVI,0.956,0
